B1: #10-22 chimeric antibody (antibody, human IgG1, lambda)
heavy: not shown
light: YELIQPPSASVTLGNTVSITCSGDELPKRYAYWYQQKPDKSIVRVIYKDSERPSGISDRFSGSSSGTTATLTIRDTQAEDEADYYCHSTYSDDKLPVFGGGTKLTVLGQPKAAPSVTLFPPSSEELQANKATLVCLISDFYPGAVTVAWKADSSPVKAGVETTTPSKQSNNKYAASSYLSLTPEQWKSHRSYSCQVTHEGSTVEKTVAPTECS
notes: Rat #10-22 variable regions with human IgG1(lambda) constant regions; also called #10-22 chimera
B2: R76S (antibody, human IgG1, lambda, V domains shown)
VH: AVQLVESGGGLVQPKESLKISCAASGFTFSNAAMYWVRQAPGKGLEWVARIRTKPNNYATYYADSVKGRFTISRDDSKSMVYLQMDNLKTEDTAMYYCTAPRRTEGIVSSGVDYWGQGVMVTVSS
VL: YELIQPPSASVTLGNTVSITCSGDELPKRYAYWYQQKPDKSIVRVIYKDSERPSGISDRFSGSSSGTTATLTISDTQAEDEADYYCHSTYSDDKLPVFGGGTKLTVLG
notes: co-expressed with the #10-22 chimeric antibody H chain in CHO-K1 cells; also called #10-22 chimeric antibody (L chain) site substitution variant R76S
B3: D77G (antibody, human IgG1, lambda, V domains shown)
VH: AVQLVESGGGLVQPKESLKISCAASGFTFSNAAMYWVRQAPGKGLEWVARIRTKPNNYATYYADSVKGRFTISRDDSKSMVYLQMDNLKTEDTAMYYCTAPRRTEGIVSSGVDYWGQGVMVTVSS
VL: YELIQPPSASVTLGNTVSITCSGDELPKRYAYWYQQKPDKSIVRVIYKDSERPSGISDRFSGSSSGTTATLTIRGTQAEDEADYYCHSTYSDDKLPVFGGGTKLTVLG
notes: co-expressed with the #10-22 chimeric antibody H chain in CHO-K1 cells; also called #10-22 chimeric antibody (L chain) site substitution variant D77G
B4: D60E (antibody, human IgG1, lambda, V domains shown)
VH: AVQLVESGGGLVQPKESLKISCAASGFTFSNAAMYWVRQAPGKGLEWVARIRTKPNNYATYYADSVKGRFTISRDDSKSMVYLQMDNLKTEDTAMYYCTAPRRTEGIVSSGVDYWGQGVMVTVSS
VL: YELIQPPSASVTLGNTVSITCSGDELPKRYAYWYQQKPDKSIVRVIYKDSERPSGISERFSGSSSGTTATLTIRDTQAEDEADYYCHSTYSDDKLPVFGGGTKLTVLG
notes: co-expressed with the #10-22 chimeric antibody H chain in CHO-K1 cells; also called #10-22 chimeric antibody (L chain) site substitution variant D60E
B5: K42Q (antibody, human IgG1, lambda, V domains shown)
VH: AVQLVESGGGLVQPKESLKISCAASGFTFSNAAMYWVRQAPGKGLEWVARIRTKPNNYATYYADSVKGRFTISRDDSKSMVYLQMDNLKTEDTAMYYCTAPRRTEGIVSSGVDYWGQGVMVTVSS
VL: YELIQPPSASVTLGNTVSITCSGDELPKRYAYWYQQKPDQSIVRVIYKDSERPSGISDRFSGSSSGTTATLTIRDTQAEDEADYYCHSTYSDDKLPVFGGGTKLTVLG
notes: co-expressed with the #10-22 chimeric antibody H chain in CHO-K1 cells; also called #10-22 chimeric antibody (L chain) site substitution variant K42Q
B6: S59P (antibody, human IgG1, lambda, V domains shown)
VH: AVQLVESGGGLVQPKESLKISCAASGFTFSNAAMYWVRQAPGKGLEWVARIRTKPNNYATYYADSVKGRFTISRDDSKSMVYLQMDNLKTEDTAMYYCTAPRRTEGIVSSGVDYWGQGVMVTVSS
VL: YELIQPPSASVTLGNTVSITCSGDELPKRYAYWYQQKPDKSIVRVIYKDSERPSGIPDRFSGSSSGTTATLTIRDTQAEDEADYYCHSTYSDDKLPVFGGGTKLTVLG
notes: co-expressed with the #10-22 chimeric antibody H chain in CHO-K1 cells; also called #10-22 chimeric antibody (L chain) site substitution variant S59P
B7: D41G (antibody, human IgG1, lambda, V domains shown)
VH: AVQLVESGGGLVQPKESLKISCAASGFTFSNAAMYWVRQAPGKGLEWVARIRTKPNNYATYYADSVKGRFTISRDDSKSMVYLQMDNLKTEDTAMYYCTAPRRTEGIVSSGVDYWGQGVMVTVSS
VL: YELIQPPSASVTLGNTVSITCSGDELPKRYAYWYQQKPGKSIVRVIYKDSERPSGISDRFSGSSSGTTATLTIRDTQAEDEADYYCHSTYSDDKLPVFGGGTKLTVLG
notes: co-expressed with the #10-22 chimeric antibody H chain in CHO-K1 cells; also called #10-22 chimeric antibody (L chain) site substitution variant D41G
B8: M108L (antibody, human IgG1, lambda)
heavy: not shown
light: YELTQPPSVSVSPGQTASITCSGDELPKRYAYWYQQKPGQSIVRVIYKDSERPSGIPERFSGSSSGTTATLTISGTQAEDEADYYCHSTYSDDKLPVFGGGTKLTVLGQPKAAPSVTLFPPSSEELQANKATLVCLISDFYPGAVTVAWKADSSPVKAGVETTTPSKQSNNKYAASSYLSLTPEQWKSHRSYSCQVTHEGSTVEKTVAPTECS
notes: co-expressed with EV007156L in CHO-K1 cells; also called #10-22 chimeric antibody (H chain) site substitution variant M108L; copies: 2 + 2
B9: V107T (antibody, human IgG1, lambda)
heavy: not shown
light: YELTQPPSVSVSPGQTASITCSGDELPKRYAYWYQQKPGQSIVRVIYKDSERPSGIPERFSGSSSGTTATLTISGTQAEDEADYYCHSTYSDDKLPVFGGGTKLTVLGQPKAAPSVTLFPPSSEELQANKATLVCLISDFYPGAVTVAWKADSSPVKAGVETTTPSKQSNNKYAASSYLSLTPEQWKSHRSYSCQVTHEGSTVEKTVAPTECS
notes: co-expressed with EV007156L in CHO-K1 cells; also called #10-22 chimeric antibody (H chain) site substitution variant V107T; copies: 2 + 2
B10: N82bS (antibody, human IgG1, lambda, V domains shown)
VH: AVQLVESGGGLVQPKESLKISCAASGFTFSNAAMYWVRQAPGKGLEWVARIRTKPNNYATYYADSVKGRFTISRDDSKSMVYLQMDSLKTEDTAMYYCTAPRRTEGIVSSGVDYWGQGVMVTVSS
VL: YELTQPPSVSVSPGQTASITCSGDELPKRYAYWYQQKPGQSIVRVIYKDSERPSGIPERFSGSSSGTTATLTISGTQAEDEADYYCHSTYSDDKLPVFGGGTKLTVLG
notes: co-expressed with EV007156L in CHO-K1 cells; also called #10-22 chimeric antibody (H chain) site substitution variant N82bS; copies: 2 + 2
B11: P41S (antibody, human IgG1, lambda, V domains shown)
VH: AVQLVESGGGLVQPKESLKISCAASGFTFSNAAMYWVRQASGKGLEWVARIRTKPNNYATYYADSVKGRFTISRDDSKSMVYLQMDNLKTEDTAMYYCTAPRRTEGIVSSGVDYWGQGVMVTVSS
VL: YELTQPPSVSVSPGQTASITCSGDELPKRYAYWYQQKPGQSIVRVIYKDSERPSGIPERFSGSSSGTTATLTISGTQAEDEADYYCHSTYSDDKLPVFGGGTKLTVLG
notes: co-expressed with EV007156L in CHO-K1 cells; also called #10-22 chimeric antibody (H chain) site substitution variant P41S; copies: 2 + 2
B12: S76N (antibody, human IgG1, lambda, V domains shown)
VH: AVQLVESGGGLVQPKESLKISCAASGFTFSNAAMYWVRQAPGKGLEWVARIRTKPNNYATYYADSVKGRFTISRDDSKNMVYLQMDNLKTEDTAMYYCTAPRRTEGIVSSGVDYWGQGVMVTVSS
VL: YELTQPPSVSVSPGQTASITCSGDELPKRYAYWYQQKPGQSIVRVIYKDSERPSGIPERFSGSSSGTTATLTISGTQAEDEADYYCHSTYSDDKLPVFGGGTKLTVLG
notes: co-expressed with EV007156L in CHO-K1 cells; also called #10-22 chimeric antibody (H chain) site substitution variant S76N; copies: 2 + 2
B13: V78A (antibody, human IgG1, lambda, V domains shown)
VH: AVQLVESGGGLVQPKESLKISCAASGFTFSNAAMYWVRQAPGKGLEWVARIRTKPNNYATYYADSVKGRFTISRDDSKSMAYLQMDNLKTEDTAMYYCTAPRRTEGIVSSGVDYWGQGVMVTVSS
VL: YELTQPPSVSVSPGQTASITCSGDELPKRYAYWYQQKPGQSIVRVIYKDSERPSGIPERFSGSSSGTTATLTISGTQAEDEADYYCHSTYSDDKLPVFGGGTKLTVLG
notes: co-expressed with EV007156L in CHO-K1 cells; also called #10-22 chimeric antibody (H chain) site substitution variant V78A; copies: 2 + 2

The target of the first experiment is T1, human-derived recombinant HMGB1 (expressed in Sf9 cells) (human, UniProt P09429 1-215, limits assumed).
T1 construct: Purified from baculovirus-infected Sf9 cells on Ni-NTA; also called Sf6-expressed recombinant human HMGB1; Sf6-derived recombinant HMGB1
T1 sequence (looked up): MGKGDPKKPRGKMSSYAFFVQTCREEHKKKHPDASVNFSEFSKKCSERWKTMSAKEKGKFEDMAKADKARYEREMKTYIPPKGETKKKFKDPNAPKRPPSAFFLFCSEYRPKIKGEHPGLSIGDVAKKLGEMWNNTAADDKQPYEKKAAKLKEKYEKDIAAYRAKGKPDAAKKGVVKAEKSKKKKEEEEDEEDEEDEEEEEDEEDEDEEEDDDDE
Kind of experiment: competition ELISA, inhibition of HMGB1 binding to immobilized RAGE-Fc. As for the experimental part:
RAGE-Fc (R&D, 250 ng/well) was immobilized overnight at 4° C. on immunoplates (Nunc, Maxisorp) and 5% BSA (bovine serum albumin) was added thereto to block the plates for 2 hours, followed by addition of human monoclonal antibody (Control Ig) to block the plates for 2 hours. HMGB1 (Sf6-derived recombinant HMGB1, final concentration: 2 μg/ml) was mixed with anti-HMGB1 antibody (#10-22 chimera, EV007156 or G4) or non-HMGB1-specific human monoclonal antibody (Control Ig) serving as a negative control antibody at a final concentration of 0, 0.02, 0.2, 2 or 20 μg/ml and incubated for 60 minutes. Subsequently, the reaction solutions were added to the immunoplates and reacted for 2 hours. Then, anti-HMGB1 antibody (Abnova, #H00003146-M08, 1 μg/ml) which had been biotinylated with a Biotin Labeling Kit (Dojindo, LK03) was reacted at room temperature for 1 hour. Finally, HRP-labeled streptavidin was reacted at room temperature for 1 hour. TMB (3,3′,5,5′-tetramethylbenzidine; SureBlue, KPL, #52-00-03) was added and HMGB1 bound to RAGE was detected by absorbance at 450 nm (FIG. 10). #10-22 chimera, EV007156 and G4 were all found to inhibit the binding of HMGB1 to RAGE in a manner dependent on the added antibody concentration.
For orientation: IC50 means the point on the concentration scale where inhibition reaches its midpoint. With B1, the IC50 was 3.04 µg/mL.

The target of a further experiment is T2, bovine thymus-derived HMGB1 (bovine, UniProt P10103 2-215).
T2 construct: Bought protein from tissue
T2 sequence (looked up): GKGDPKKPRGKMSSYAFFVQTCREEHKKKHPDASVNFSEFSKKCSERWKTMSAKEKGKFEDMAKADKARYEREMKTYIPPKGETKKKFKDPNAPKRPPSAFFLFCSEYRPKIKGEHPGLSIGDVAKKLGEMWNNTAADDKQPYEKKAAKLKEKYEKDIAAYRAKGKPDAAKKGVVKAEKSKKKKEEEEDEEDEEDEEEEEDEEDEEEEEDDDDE
Briefly: ELISA on HMGB1-immobilized immunoplate, antibodies adjusted to an equal concentration; OD as % of #10-22 chimera (source of the HMGB1 not named for this figure).
In the case of B2, the binding result is given as “binds”.
Turning to B3, the binding result was “binds”.
On to B4, for which the binding result is “binds”.
On the same count and under the same terms, the same measure for B5: “binds”; for B6: “binds”; for B7: “binds”.

In another experiment the target is T2, bovine thymus-derived HMGB1. Kind of experiment: ELISA on HMGB1-immobilized immunoplate, antibodies adjusted to an equal concentration; OD as % of EV007156 (L) + #10-22 chimera (H) (source of the HMGB1 not named for this figure). For orientation: ELISA stands for enzyme-linked immunosorbent assay.
Regarding B8, the binding result was “binds”.
On the same count and under the same terms, as for B9, the entry is “binds”; as for B10, “binds”; as for B11, “binds”.
On the same count and under the same terms, the same measure for B12: “binds”; for B13: “binds”.

Source of the values: patent US20150361164A1 (EVEC, published 2015).
